In patent US20170122849:

Tested on: (KW)2KKA-eGFP-AKK(WK)2 (DNA-staining eGFP) (synthetic construct (eGFP from Aequorea victoria?))
Assay: EMSA
Conditions: about; apparent Kd; TE/glycerol, 0.5x TBE 4-20% gel, EtBr stain

Sequence: CTACTAGCACAATCGACTGTACGGACCGATCGAGTCACTAGCAGTCTAGCAA (double strand) [52-mer random sequence dsDNA]
- Kd: 14.7 µM
